{
  "source": "paper PMC13013481",
  "biological_target": "RSV G central conserved cysteine-rich region peptide (Gpep, residues 149-196) (respiratory syncytial virus strain A2)",
  "experiment": "Tricine SDS-PAGE, non-reducing and reducing; 16% Tricine SDS-PAGE of concentrated Gpep, with or without β-mercaptoethanol and with or without heat denaturation",
  "data": [
    {"substance": "RSV G central conserved cysteine-rich region peptide (Gpep, residues 149-196)", "values": [
      {"measurement": "stoichiometry N", "result": 2}
    ]}
  ]
}
